Key:
[1] = target: mature HIV-1 protease bearing drug-resistance mutation L76V (PR_(L76V)) (HIV-1); assay: ITC
[2] = target: mature HIV-1 protease bearing drug-resistance mutation L76V (PR_(L76V)) (HIV-1); assay: enzyme activity against protease concentration

Substance | Kd [1] | Kd [2]
RPB inhibitor (H-Arg-Val-Leu-(r)-Phe-Glu-Ala-Nle-NH2), substrate-analog inhibitor with a reduced peptide bond | 61 nM | –
mature HIV-1 protease bearing drug-resistance mutation L76V (PR_(L76V)) (enzyme) | – | 71 nM
